These results are taken from PMC5750328, “Study on oligomerization of glutamate decarboxylase from Lactobacillus brevis using asymmetrical flow field-flow fractionation (AF4) with light scattering techniques” (Analytical and Bioanalytical Chemistry, 2017).

What is called stoichiometry N is a count of units in the complex or per binding partner.

Series [1] concerns the molecule itself. Put plainly: asymmetrical flow field-flow fractionation with UV, MALS and dRI detection (AF4-UV-MALS-dRI); self-association; carrier liquid 10 mM citrate-phosphate buffer pH 6, room temperature; relative amounts from deconvoluted UV fractograms at 280 nm.
Series [2] concerns the molecule itself. Description: asymmetrical flow field-flow fractionation with UV, MALS and dRI detection (AF4-UV-MALS-dRI); self-association; carrier liquid 10 mM citrate-phosphate buffer pH 8, room temperature; relative amounts from deconvoluted UV fractograms at 280 nm.

B1: glutamate decarboxylase (LbGadB) from Lactobacillus brevis DSM 1269, recombinant (enzyme, UniProt A9ZM78 1-480, looked up)
chain: MMNKNDQETQQMINNVDLEKTFLGSVEAGQSLPTYTLPDDPMAPDVAAQLVEHYRLNEAKANQNLATFCTTQMEPQADELMKNALNTNAIDKSEYPKTAAMENYCVSMIAHLWGIPDNEKIYDDFIGTSTVGSSEGCMLGGLALLHSWKHRAKAAGFDIEDLHSHKPNLVIMSGYQVVWEKFCTYWNVEMRQVPINGDQVSLDMDHVMDYVDENTIGIIGIEGITYTGSVDDIQTLDNLVTEYNKTATMPVRIHVDAAFGGLFAPFVDGFNPWDFRLKNVVSINVSGHKYGMVYPGLGWIVWRHDTADILPAEMRFQVPYLGKTVDSIAINFSHSGAHISAQYYNFIRFGLSGYKTIMQNVRKVSLKLTAALKTYGIFDILVDGSQLPINCWKLADDAPVGWTLYDLESELAKYGWQVPAYPLPKNRDDVTISRIVVRPSMTMTIADDFLDDLKLAIDGLNHTFGVTTTVDQDNKTTVRS
notes: glutamate decarboxylase LbGadB of Lactobacillus brevis DSM 1269; gene amplified from genomic DNA with a forward primer that holds the ATG (NdeI site) and a reverse primer with an XhoI site, cloned in pET21b; gene deposited as GenBank KX417371; Oligomeric state depends on pH: dimer at pH 7-8, hexamer at pH 6, so copies is left empty; the whole gene appears to have been cloned; Cloning NdeI/XhoI in …
As for B1, the “stoichiometry N” value in series [1] stood at 6; in series [2], 2.
